Measurements as given in the DeepSol protein solubility set.

Experiment: soluble on expression in E. coli; label from the status in PepcDB or PDB records

Sequence | soluble on expression in E. coli
QDLARIEQFLDALWLEKNLAENTLNAYRRDLSMMVEWLHHRGLTLATAQSDDLQALLAERLEGGYKATSSARLLSAVRRLFQYLYREKFREDDPSAHLASPKLPQRLPKDLSEAQVERLLQAPLIDQPLELRDKAMLEVLYATGLRVSELVGLTMSDISLRQGVVRVIGKGNKERLVPLGEEAVYWLETYLEHGRPWLLNGVSIDVLFPSQRAQQMTRQTFWHRIKHYAVLAGIDSEKLSPHVLRHAFATHLLNHGADLRVVQMLLGHSDLSTTQIYTHVATERLRQLHQ | soluble
MGSDKIHHHHHHMTQPQMIHPGETPEQHAAFQARIARGEKIEPGDWMPAEYRRQLIRMISQHAHSEVVGMLPEGEWITRAPTLKRKTILIAKVQDEAGHGQYLYHAAETLGVTREEMLDALLSGKAKYSSIFNYPSLTWADVGMIGWLVDGAAIKNQTMLAGCSYGPYSRAMVRICSEETFHHKQGKEMIVAYAQGTPEQKQMAQDALNRWWWPALMMLGPHDADSPNTGALVQWGIKLKTNDEVRQEFINEHVPELLEAGLTIPDPDLHQDEQGNWIHGPINWDEFWAVVKGQQGLHRERLGTRQQAHEEGAWVREAVQAYAARQLGQAAD | not soluble
MSLEELPRFFTQNGRHALLVDGAPYTILAAQLHNSSAWPAVLPPALDQVVALHANTVEAPVYWEQFEPAPGRFDTTNVDALIAGARKRGLRVALLWFGSWKNGQMHYVPEWIKRDEATYPRMRDANGEPVDVLSPHVAANVQADARAFTALMQHLRKVDGDRHTVIVVQVENEPGAIGTVRDHGPAGEAAFAQPVPAGIAAALGKPAGSWQQLFGAEAAEAFNAHATAAYIEQVAAAGKRVYPLPLYVNTWLRYKGKRYPGMDYPSGGATVNVFALWRAATPSIDFIGTDIYTSDYGEYTKVIGQYAREGHHHHHH | soluble
MKFVAPEQAPEQAEVIKNTPFWPDVDLSEFRSVMRTDGTVTQPRLKQVVLTAISEVNAELYDFRNRQQMLGWRTLAEVPAEMLDGKSERIRHYHNAVFCWARAVLNERYQDYDATASGVKRGEELAEASGDLWRDARWAISRVQDVPHCTVELI | not soluble
MTQLNQRRRGNRLENAIYDTTYTLLSQYGLDQVTFSRVATAAATSRSVLYRYWDSTFDLIFHTIIHQIQKTPIALTTTPLDTGSLRTDLILLAQRFIQQTSTGPFRYFRLLFATALNAQNQRDLTQLVTQIDHANLTLIEPLLTNAQNHGELQIWPNQAAQLVLFQQLRYCDIINQPMNTDQQLTNLIDQVVLPALRASGVANRHFHH | not soluble
MGGPGETQIEADRRLLQDRIVKLEKELEQVVRTRQLHRAKRRKVPHPIVALVGYTNAGKSTLFNRITGAGVLAEDMLFATLDPTLRRMKLPHGRTVILSDTVGFISDLPTHLVAAFRATLEEVLEADLVLHVRDMSDPDNAAQSADVLRILGDLGIDEKEAEKRIIEVWNKVDRLEPEAHDAIMQRAEGRSDIRAVSAITGEGVDALMEEISKRLSGVLTETTVVLSVEQLPLISWVYSNSIVDNREDHEDGSVALDVRLSEAQAVELERKLGKTAGREREDWERAAALEHHHHHH | not soluble
MGSDKIHHHHHHMTLSKERKLHIPFERDGDLMDIGSYPHWLQDVVGTVRAARDRVRFHEVFSLMRDGRLAPRQLAAFFVNGWPVVEQFPKYMSMNLLKANGTNSSGEEKARRYLIRNIRVELNHVEHWVNWAEASGVPRRQLTDGDSPPAALALSHWCWKSSSADTLAASIAATNYAIEGVTGEWSADLCRSDVYEMGFPEAVRGRAMRWLRLHSSYDDKHPWEALDIVATILGQSPSTEQVRDVAAGIERSFRYFEMSLSCCLDA | not soluble
MPISYCVSAKKASVVVESVVGNFTGHENVNLIVARGNRIDVQLVSPEGLKNVCEIPIYGQVLTIALVKCKRDKRHSLIVVTEKWHMAILAYRDGKVVTRAAGCIADPTGRATDNLFSLTIHRNGLIAIRAFEGSVKMIQWESGTDLRHFNVRFDYPNVSDFKFVDTGEDDVYRVAFIYDDDHGKHLQFSDLNMHDKEFRTYSRQASIAADSSVLIPVPHAIGGVIVLGSNSVLYKPNDNLGEVVPYTCSLLENTTFTCHGIVDASGERFLLSDTDGRLLMLLLNVTESQSGYTVKEMRIDYLGETSIADSINYIDNGVVFVGSRLGDSQLIRLMTEPNGGSYSVILETYSNIGPIRDMVMVESDGQPQLVTCTGADKDGSLRVIRNGIGIDELASVDLAGVVGIFPIRLDSNADNYVIVSLSDETHVLQITGEELEDVKLLEINTDLPTIFASTLFGPNDSGIILQATEKQIRLMSSSGLSKFWEPTNGEIISKVSVNAANGQIVLAARDTVYLLTCIVDEMGALDIQLTAEKKFENEIACLDLSNEGDDPNNKATFLVLAFWSTFAMEVIQLPDLITVCHTDLPTKIIPRSIIATCIEEVHYLLVAFGDGALVYYVFDIKTGTHGEPKKSNVGTRPPSLHRVRNKNRQHLFVCSDRPVIIFSASKKLVFSNVNVKLVDTVCSLSSSAYRDCLVISDGNSMVFGTVDDIQKIHVRSIPMGESVLRIAYQKSTSTYGVCSNRTESKAERVFASKNALVTSQSRPKVASTRADMDESPPNTTSSFMVLDQNTFQVLHSHEFGPWETALSCISGQFTNDSSTYYVVGTGLIYPDETETKIGRIVVFEVDDVERSKLRRVHELVVRGSPLAIRILNGKLVAAINSSIRLFEWTTDKELRLECSSFNHVIALDLKVMNEEVAVADVMRSVSLLSYRMLEGNFEEVAKDWNSQWMVTCEFITAESILGGEAHLNLFTVEVDKTRPITDDGRYVLEPTGYWYLGELPKVMTRSTLVIQPEDSIIQYSQPIMFGTNQGTIGMIVQIDDKWKKFLIAIEKAIADSVKNCMHIEHSSYRTFVFQKRAEPPSGFVDGDLVESILDMDRSVAMDILSKVSDKGWDPSLPRDPVEILKVIEDLARMH | not soluble
MGSDKIHHHHHHLSFLYVYERSAKIGVQENCVVVESKKENLKRILPIEGVENVIIFGDASLSSNCVKQFMERDINLTWLSSRGKFYGRLESTRNVNIYRQRKQFACGEDDEFCLALAKRIILAKVKNQITILRRYRRNRPEKSVQKIIDAMAKLLPIMERVHNKDELMGHEGMAARYYYQGLAELVEPDFAFSGRNRQPPRDPFNSLLSFAYTLLMYDLYTAAVNRGLNPYASFLHSIRRGHPALCSDLMEEWRAILADSLALYVTSKGIIKRENFEKPNEEGGVYLDGIGSKAFIAEYEKKVRGRSNYLAYVDYSVSFRRAMEMQCQRLAKAIEEGDPSIYQPVVIR | not soluble
MNTKPQLTLLKVQASYRGDPTTLFHQLCGARPATLLLESAEINDKQNLQSLLVIDSALRITALGHTVSVQALTANGPALLPLLDEALPPEVRNQARPNGRELTFPAIDAVQDEDARLRSLSVFDALRTILTLVDSPADEREAVMLGGLFAYDLVAGFENLPALRQDQRCPDFCFYLAETLLVLDHQRGSARLQASVFSEQASEAQRLQHRLEQLQAELQQPPQPIPHQKLENMQLSCNQSDEEYGAVVSELQEAIRQGEIFQVVPSRRFSLPCPAPLGPYQTLKDNNPSPYMFFMQDDDFTLFGASPESALKYDAGNRQIEIYPIAGTRPRGRRADGSLDLDLDSRIELEMRTDHKELAEHLMLVDLARNDLARICQAGSRYVADLTKVDRYSFVMHLVSRVVGTLRADLDVLHAYQACMNMGTLSGAPKVRAMQLIAALRSTRRGSYGGRVGYFTAVRNLDTCIVIRSAYVEDGHRTVQAGAGVVQDSIPEREADETRNKARAVLRAIATAHHAKEVF | soluble
MPGLCTGPFAKGRCMSLLAQLDQKIAANGGLIVSCQPVPDSPLDKPEIVAAMALAAEQAGAVAIRIEGVANLQATRAVVSVPIIGIVKRDLEDSPVRITAYIEDVDALAQAGADIIAIDGTDRPRPVPVETLLARIHHHGLLAMTDCSTPEDGLACQKLGAEIIGTTLSGYTTPETPEEPDLALVKTLSDAGCRVIAEGRYNTPAQAADAMRHGAWAVTVGSAITRLEHICQWYNTAMKKAVL | soluble
MGSDKIHHHHHHMKAPLVSIIIPVWNLWELTCACLDSIRAHTPGNAVEVIVVDNGSDDTTATALAPTGEGLFGARFRRIRLETNRGFAVACNLGAAKAQGTYLLLLNNDTVLSPGWLPPLLREFDDEPRTGAAGPLLVYPDSGRVQHCGIAFAPTLQTEHLYANFPATHPAVRARRTLQAITGAAMLLPTALFRQCGGFHEGYKNGCEDLELCCRIREQGLRLAVVPESLVAHHESRTPGRKEHDAANATLLNRRCSGCFGPDLHRHALRDGFAIALTPWLDTYLTLPPGREAALTREHITDFDPGRCWETLQGEPLWHGGYEMLCSILDEAGRHAESAGVRLLQAGFFPTLPGFRQLARSAALSGNDELARQAAEKMQHIGGILEDPEPLVTRARGLVRWARRAGEPAVEALYTGWLTDIGLSADD | not soluble
MEEKFTPEEQAIYDEHFASDRPVELVEPEQVREAFNAEESSQQPSVEPLQEQPNSGVIEQERQARQKAEQKAMEARELAIEFAQKYAQMQEEAVRRRDENIPTLEDDPKAHVAWLSHKVQEQQKLLDEFSRIRESQERLNQEEYERQKLGDYFEEAKAQVQDKYPDLDSITDYLYERADSVLQAQADLYPQWKDPAARQQQIGAELRQICQQCQKAGINPIEVLVQKAKAFGYSGAPIKDEVETLQERSQAARTLTARGGQVPTGGMDMRTLFSMPDAEFAVWVEKNPEKFEQIMSRT | not soluble
MAELNFKAIEEKWQKRWLEAKIFEPNIRDKPKEKKFYITVAFPYLSGHLHVGHARTYTIPDVIARFKRMQGYNVLFPMAWHITGSPIVGIAERIKNRDPKTIWIYRDVYKVPEEILWTFEDPINIVKYFMKAAKETFIRAGFSVDWSREFYTTSLFPPFSKFIEWQFWKLKEKGYIVKGAHRVRWDPVVGTPLGDHDLMEGEDVPILDYIIIKFELRENGEVIYLPAATLRPETVYGVTNMWVNPNATYVKAKVRRKDKEETWIVSKEAAYKLSFQDREIEVIEEFKGEKLIGKYVRNPVSGDEVIILPAEFVDPDNATGVVMSVPAHAPFDHVALEDLKRETEILEKYDIDPRIVENITYISLIKLEGYGDFPAVEEVNKLGIKSQKDKEKLEQATKTIYKAEYHKGIFKVPPYEGKPVQEVKEAIAKEMLEKGIAEIMYEFAEKNVISRFGNRAVIKIIHDQWFIDYGNPEWKEKARKALERMKILPETRRAQFEAIIDWLDKKACARKIGLGTPLPWDPEWVIESLSDSTIYMAYYTISRHINKLRQEGKLDPEKLTPEFFDYIFLEEFSEDKEKELEKKTGIPAEIIHEMKEEFEYWYPLDWRCSGKDLIPNHLTFFIFNHVAIFREEHWPKGIAVNGFGTLEGQKMSKSKGNVLNFIDAIEENGADVVRLYIMSLAEHDSDFDWRRKEVGKLRKQIERFYELISQFAEYEVKGNVELKDIDRWMLHRLNKAIKETTNALEEFRTRTAVQWAFYSIMNDLRWYLRRTEGRDDEAKRYVLRTLADVWVRLMAPFTPHICEELWEKLGGEGFVSLAKWPEPVEEWWNETIEAEEEFIRSVMEDIKEIIEVAKIENAKRAYIYTAEDWKWKVAEVVSEKRDFKSSMEELMKDSEIRKHGKEVAKIVQKLIKERTFDVKRINEEKALREAKEFMEKELGIEIIINPTEDKGGKKKQAMPLKPAIFIE | soluble
MGSDKIHHHHHHMLDKKTNIATDDPKAWLAQHGINEVECLVPDMNGVLRGKALPTAKFLKALEDRALYLPSSAFLVSIDGRYSGSIDEGFAYSDPDMRMVPDVSTLCLAPGAGAGKAYVFADAFHMDGRPWMASPRHVLRAVLDLYRQRGWRAVVAPEVEFYLTAPNPDPDRPLTAPVGANGRAEGVQHPYDMVALEEFEPVIRRVYDYAAAAGLPLDTLIHESGTAQLEINLLHGDALPLADQVLLFKRLTRQAAQQCGMHATFMAKPIAAQAGSSMHLHMSVVDEAGNALFASDDDADTEMFGHFIGGLQTYVPEIMPLFAPNVNSFRRIRPNHSAPANIEWSHDNRSCGLRVPAGGRSARRVENRLPGADSNPYLAIAGSLLAGYLGVQQKLARSAEASGNAYKIKSTLPKTMEEALDRFTACEPVRKLLGEDFSQTYLRVKSVELDLFQSVVTSWERDHLLLKV | not soluble
